Results reported in US20240101668A1.

Key:
[1] = molecular target: huFLT3-M227 stably expressed on Ramos cells (human) (UniProt P36888); test: FACS on cells
[2] = molecular target: huFLT3-T227 stably expressed on Ramos cells (human) (UniProt P36888); test: FACS on cells

Binder | FACS geometric mean fold change over Jurkat parental [1] [fold] | FACS geometric mean fold change over Jurkat parental [2] [fold]
Polypeptide No. 251 (scFv, V domains shown) VH: QVQLVQSGAEVKKPGSSVKVSCKASGGTFSSDAINWVRQAPGQGLEWMGGIIPIVGTPTYAQKFQGRVTITADESTSTAYMELSSLRSEDTAVYYCAKGLAFGVFDGLDVWGQGTTVTVSS VL: EIVMTQSPATLSVSPGERATLSCRASQSVSSNYLAWYQQKPGQAPRLLIYDVSTRATGIPARFSGSGSGTEFTLTISSLQSEDFAVYYCQQYGSSTLTFGGGTKVEIKR | < 2 | < 2
Polypeptide No. 266 (scFv, V domains shown) VH: QVQLVQSGAEVKKPGSSVKVSCKASGYSLTELSIHWVRQAPGQGLEWMGGINPISGTANYAQKFQGRVTITADESTSTAYMELSSLRSEDTAVYYCARGTVRLNWFDPWGQGTLVTVSS VL: EIVMTQSPATLSVSPGERATLSCRASQSVGSQLGWYQQKPGQAPRLLIYGASTRATGIPARFSGSGSGTEFTLTISSLQSEDFAVYYCQQSFSTPLTFGGGTKVEIKR | < 2 | < 2
Polypeptide No. 255 (scFv, V domains shown) VH: QVQLVQSGAEVKKPGSSVKVSCKASGYTLTELSMHWVRQAPGQGLEWMGGIIPISGTVTYAQKFQGRVTITADESTSTAYMELSSLRSEDTAVYYCANKGQQLVRGYFQHWGQGTLVTVSS VL: DIQMTQSPSSLSASVGDRVTITCQASHDIRNSVNWYQQKPGKAPKLLIYATSSLQSGVPSRFSGSGSGTDFTLTISSLQPEDFATYYCQQSYNTPFTFGQGTKLEIKR | < 2 | < 2
Polypeptide No. 258 (scFv, V domains shown) VH: QVQLVQSGAEVKKPGASVKVSCKASGGTFGSYAISWVRQAPGQGLEWMGWINPNTGGAHYAQKFQGRVTMTRDTSTSTVYMELSSLRSEDTAVYYCARVGAAAGYQHWGQGTLVTVSS VL: DIQMTQSPSSLSASVGDRVTITCRASQSIKGALAWYQQKPGKAPKLLIYSASNLQSGVPSRFSGSGSGTDFTLTISSLQPEDFATYYCQQYNSYPLTFGGGTKVEIKR | < 2 | < 2
Polypeptide No. 264 (scFv, V domains shown) VH: QVQLVQSGAEVKKPGSSVKVSCKASGYTLTELSMHWVRQAPGQGLEWMGGIIPISSATSIPQKFQGRVTITADESTSTAYMELSSLRSEDTAVYYCARGALYSSSPVRVVAGTKGWFDPWGQGTLVTVSS VL: DIQMTQSPSSLSASVGDRVTITCRASQDISNYLAWYQQKPGKAPKLLIYAASSLQSGVPSRFSGSGSGTDFTLTISSLQPEDFATYYCQQYYSYPLTFGGGTKVEIKR | < 2 | < 2

Now from value to binder:

FACS geometric mean fold change over Jurkat parental [1] [fold] | FACS geometric mean fold change over Jurkat parental [2] [fold] | Binder
< 2 | < 2 | Polypeptide No. 289 (scFv, V domains shown) VH: QVQLVQSGAEVKKPGASVKVSCKASGYTFTSYGISWVRQAPGQGLEWMGWMNPISGNTDYAPNFQGRVTMTRDTSTSTVYMELSSLRSEDTAVYYCVVERRREVGMDVWGQGTTVTVSS VL: DIQMTQSPSSLSASVGDRVTITCQASQGITSYLNWYQQKPGKAPKLLIYKASSLESGVPSRFSGSGSGTDFTLTISSLQPEDFATYYCQQGYSTPLTFGGGTKVEIKR
< 2 | < 2 | Polypeptide No. 267 (scFv, V domains shown) VH: QVQLVQSGAEVKKPGSSVKVSCKASGYTLTSFGISWVRQAPGQGLEWVGMIIPLSGTTHYAQKFQGRVTITADESTSTAYMELSSLRSEDTAVYYCANLYGGNAYYYYGMDVWGQGTTVTVSS VL: DIQMTQSPSSLSASVGDRVTITCRASQDISNFVAWYQQKPGKAPKLLIYAASSLQSGVPSRFSGSGSGTDFTLTISSLQPEDFATYYCQQSFDTPYTFGQGTKLEIKR
< 2 | < 2 | Polypeptide No. 277 (scFv, V domains shown) VH: QVQLVQSGAEVKKPGSSVKVSCKASGYTFTGYYMHWVRQAPGQGLEWMGWIDPNSGGTNYAQKFQGRVTITADESTSTAYMELSSLRSEDTAVYYCARDVDTAMVTDYWGRGTLVTVSS VL: EIVMTQSPATLSVSPGERATLSCRASQSVDNLVGWYQQKPGQAPRLLIYDISSRATGIPARFSGSGSGTEFTLTISSLQSEDFAVYYCQQYGRSPITFGQGTRLEIKR
